Source: paper PMC5217639, “Structural prediction of the interaction of the tumor suppressor p27^KIP1 with cyclin A/CDK2 identifies a novel catalytically relevant determinant” (BMC Bioinformatics, 2017)

Experiments:
[1] = target: Human cyclin A/CDK2 complex (human) (UniProt P20248)
cyclin A/CDK2 = target: T1, cyclin A/CDK2 (Homo sapiens, UniProt P24941); assay: In vitro kinase assay of cyclin A/CDK2 on biotinylated p27KIP1 substrate peptides (Michaelis-Menten kinetics); format: biochemical; settings: for Relative rate (maximal relative rate of phosphoryl transfer) / Km: 50 μM ATP and 1 μCi 32P-γ-ATP, 10 min, 30°C, 50 mM Tris-HCl pH 7.5, 10 mM MgCl2, SAM2 membrane, scintillation counting, Michaelis-Menten fit (GraphPad Prism), Fig. 5: mean values ± SD of 5 experiments performed in duplicates; for Km: peptide substrate
T1 construct: made in house; host or cells: Sf9 insect cells (Spodoptera frugiperda), baculovirus co-infection
Protocol: Fig. 5 Analysis of cyclin A/CDK2 kinase activity on p27^KIP1 substrate peptides. Cyclin A/CDK2 Kinase purified from Sf9 cells was incubated with increasing concentrations of p27^KIP1 wild type and the R194A mutant peptide as indicated. Phosphorylation of the peptides was monitored after immobilisation on SAM2 membrane by scintillation counting and analysis by GraphPad Prism software. Shown are mean values ± SD of 5 experiments performed in duplicates
Human cyclin A/CDK2 complexes were expressed in SF9 insect cells (Spodoptera frugiperda) upon infection with recombinant baculo viruses encoding either cyclin A or CDK2. The complex was purified using the GST tag of cyclin A [49]. In vitro kinase assays of cyclin A/CDK2 were performed in kinase buffer (50 mM Tris-HCl, pH 7.5, 10 mM MgCl2, 1 mM EGTA, 1 mM DTT, 40 mM α-glycero-phosphate, 20 mM p-nitrophenylphosphate, 0.1 mM sodium vanadate, 0.01% BriJ 35) containing 50 μM ATP and 1 μCi ^32P-γ-ATP for 10 min at 30°C in the presence of increasing amount of biotinylated p27^KIP1 wild type or R194A (an arginine to alanine substitution at position 194) peptides as substrates. The assays were terminated by adding 12.5 μl 7.5 M guanidine hydrochloride. The peptides were immobilized on SAM2 Biotin Capture Membranes (Promega), extensively washed as described in the manufacturer’s protocol, and then monitored for radioactivity in a liquid scintillation counter to calculate the specific kinase activity. Kinetic parameters were determined with GraphPad Prism software built-in “Enzyme kinetic Michaelis-Menten”. The sequence of the p27^KIP1 wild type peptide corresponds to amino acids 180 to 194. The peptides were synthesized with a biotin-PEG-20-linker and purified by HPLC at the Peptide Specialty Laboratories, Heidelberg (Germany).

Substance	Km of peptide phosphorylation by cyclin A/CDK2, in vitro kinase assay (32P-γ-ATP, 50 μM ATP, 10 min, 30°C) [1] [µM]	Relative rate/Km of peptide phosphorylation by cyclin A/CDK2, in vitro kinase assay [1]	maximal relative rate of phosphoryl transfer by cyclin A/CDK2, in vitro kinase assay [1] [pmol/min]	Relative rate (maximal relative rate of phosphoryl transfer) (cyclin A/CDK2) [pmol/min]	Km (cyclin A/CDK2) [µM]	turnover rate of the wt peptide relative to the R194A mutant peptide (cyclin A/CDK2; wt versus R194A, in words)
p27^KIP1 wild-type peptide (amino acids 180 to 194)	93.6	0.0195	2.21	–	–	–
N180AGSVEQTPKKPGLR [wt, p27KIP1 wild type peptide corresponding to amino acids 180 to 194]	–	–	–	2.21	93.6	twice as high
N180AGSVEQTPKKPGLA [Peptide R194A, p27KIP1 peptide with an arginine to alanine substitution at position 194]	–	–	–	1.11	81.4	–
p27^KIP1 R194A peptide (amino acids 180 to 194)	81.4	0.0135	1.11	–	–	–
